Results published in the RNAGym collection of RNA variant scans (doi:10.7554/elife.80360).

B1: HDV Ribozyme (parent)
chain: GGCCGGCAUGGUCCCAGCCUCCUCGCUGGCGCCGGCUGGGCAACAUUCCGAGGGGACCGUCCCCUCGGUAAUGGCGAAUGGGACCCA

Variants of: B1
Assay: self-cleavage, relative activity (ratio to wild type); higher = more cleavage; co-transcriptional
GGCCGGCAUGGUCCCAGCCUCCUCGCUGGCGCCGGCUGGGCAACAUUCCGAGGGGACGGUCCCCUCGGUAAUGGCGAACGGGACCCA gave a self-cleavage of 0.366.
GGCCGGCAUGGUCCCAGCCUCCUCGCUGGCGCCGGCUGGGCAACAUUCCGAGGGGACCGCCCCCUCGGUAAUGGCGAAUGGGACCCU gave a self-cleavage of 0.921.
Variant GGCCGGCAUGGUCCCAGCCUCCUCGCUGGCGCGGGCUGGGCAACAUUCCGAGGGGACCGUCCCCUGGGUAAUGGCGAAUGGGACCCA has a self-cleavage of 0.122.
Work on GGCCGGCAUGGUCCCAGCCUCCUCGCUGGCGGCGGCUGGGCAACAUUCCGAGGGGACCGUCCCCUCGGUAAUGGCGAAUGGGAUCCA yielded a self-cleavage of 0.0354.
Variant GGCCGGCAUGGUCCCAGCCUCCUCGCUGGCGCCGGCUGGCCAACAUUCCGAGGGGACCGUCCCCUCUGUAAUGGCGAAUGGGACCCA has a self-cleavage of 0.323.
In the case of GGCCGGCAUGGUCCCAGCCUCCUCGCUGGCGGCGGCUGGGCAACAUUCUGAGGGGACCGUCCCCUCGGUAAUGGCGAAUGGGACCCA, the self-cleavage is reported as 0.0811.
Work on GGUCGGCAUGGUCCCAGCCUCCUCGCUGGCGCCGGCUGGGCAACAUUCCGAGGGGACCGUCCCCUCGGUAGUGGCGAAUGGGACCCA yielded a self-cleavage of 0.89.
GGCCGGCAUGGUCCCGGCCUCCUCGCUGGCGCCGGCUGGGCAACAUUCCGAGGGGACCGUCCCCUCGGUAAUGGCGAAUGUGACCCA showed a self-cleavage of 0.489.
Variant GGCCGACAUGGUCCCAGCCUCCUCGCUGGCGCCGGCUGGGCAACAUUCCGAGGGGACCGUCCCCUCGGUAAUGGCGAAUGGGACCUA has a self-cleavage of 0.759.
GCCCGGCAUGGUCCCAGCCUCCUCGCUGGCGCCGGCUGGGCAACAUUCCGAGGGGACCGUCCCCUCGGUAAGGGCGAAUGGGACCCA showed a self-cleavage of 0.0791.
With GGCCGGCAUGGUCCCAGCCUCCUCGCUGGCGCCGGCUGGGCAACAUUCCGAGGGGACCGCCCCUUCGGUAAUGGCGAAUGGGACCCA the self-cleavage was 0.895.
GGCCGGCAUGGUCCCUGCCUCCUCGCUGGCGCCGGCUGGGCAACAUUCCGAGGGGACCGUCCCCUCGGUAAUGGCGAAUGGGGCCCA gave a self-cleavage of 0.567.
For GGCCGGCAUGGUCCCAGCCUCCUCGCUGGCGCCGGCUGGGCAACAUUCCGAGGGGACCGGCCCCUCGGUAAUGGCGAUUGGGACCCA, the self-cleavage was 0.178.
In the case of GGCCGGCACGGUCCCAGCCUCCUCGCUGUCGCCGGCUGGGCAACAUUCCGAGGGGACCGUCCCCUCGGUAAUGGCGAAUGGGACCCA, the self-cleavage is reported as 0.115.
In the case of GGCCGGCAUGGUCCCAGCCUCCUCGCUGGCGCCGGCUGGGCAACAUUCUGAGGGGACCGCCCCCUCGGUAAUGGCGAAUGGGACCCA, the self-cleavage is reported as 1.04.
In the case of UGCCGGCAUGGUCCCAGCCUCCUCGCUGGCGCCGGCUGGGCAACAUUCCGAGGGGACCGUCCCCUCGGUAAUGGCGAAUGAGACCCA, the self-cleavage is reported as 0.25.
Variant GGCCGGCAUGGUCCCAGCCUCUUCGCUGGCACCGGCUGGGCAACAUUCCGAGGGGACCGUCCCCUCGGUAAUGGCGAAUGGGACCCA has a self-cleavage of 0.22.
With GGCCGGCAUGGUUCCAGCCUCCUCGCUGGCGCCGGCUGGGCAACAUUCCGAGGGGACCGUCCCCUCGGUAAUGGCGAAGGGGACCCA the self-cleavage was 0.0519.
For GGCCGGCAUGGUCCCAGCCUCCUCGCUGGCGCCGGCUGGGCAUCAUUCCGAGGGGACCGUCCCCUCGGUAAUGGCGAAUGGAACCCA, the self-cleavage was 0.0811.
Work on GGCCGGCAUGGUCCCAGCCUCCUCGCUGGCGCCGGCUGGGCAACAUUCCGAGGGGACCGUCCCCUCGGUAAUUGCGUAUGGGACCCA yielded a self-cleavage of 0.0811.
GGCCGGCAUGGUCCCAGCCUCCUCGCUGGCGCCGGCUGAGCAACAUUCCGAGGGGACCGUCCCCUCGGUAAGGGCGAAUGGGACCCA showed a self-cleavage of 0.102.
With GGCCGGCAUGGUCCCAGCCCCCUAGCUGGCGCCGGCUGGGCAACAUUCCGAGGGGACCGUCCCCUCGGUAAUGGCGAAUGGGACCCA the self-cleavage was 0.
With GGCCGGCAUGGUCCCAGACUCCUCGCUGGCGCCGGCUGGGCAACAUUCCGAGGGGACCGUCCCCUCGGUAAUGGCGAAUGGGAUCCA the self-cleavage was 0.0997.
With GGCCGGCAUGGACCCAGCCUCCUCGCUGGCGCCGGCUGGGCAACAUUCCGAGGGGACCGUCCCCGCGGUAAUGGCGAAUGGGACCCA the self-cleavage was 0.
Variant GGCCGGCAUGGUCCCAGCCUCCUCGCUGGCGCCGGCUGGGCAACAUUCCGAGGUGACGGUCCCCUCGGUAAUGGCGAAUGGGACCCA has a self-cleavage of 0.997.
Work on GGCCGGCAUGGUCCCAGCCUCCUCGCUGGCGCCGGCUGGGCAACAUUCCGAGGGGACCGUCCCCUUGGUAGUGGCGAAUGGGACCCA yielded a self-cleavage of 0.909.
Work on GGCCGCCAUGGUCCCAGCCUCCUCGCUGGCGCCGUCUGGGCAACAUUCCGAGGGGACCGUCCCCUCGGUAAUGGCGAAUGGGACCCA yielded a self-cleavage of 0.256.
With GGACGGCAUGGUCCCAGCCUCCUCGCUGGCGCCGGCUGGGCAACACUCCGAGGGGACCGUCCCCUCGGUAAUGGCGAAUGGGACCCA the self-cleavage was 0.173.
GGCCGGCAUGGUCCCAGCCUCCUCGCUGGCGCCGGCUGGGCAACACUCCCAGGGGACCGUCCCCUCGGUAAUGGCGAAUGGGACCCA showed a self-cleavage of 0.932.
Variant GGCCGGCAUGGUCCCAGCCUCCUCACUGGCGCCGGCUGGGCAACAUUCCGAGGGGACCGUCCCUUCGGUAAUGGCGAAUGGGACCCA has a self-cleavage of 0.204.
For GGCCGGCAUGGUCCCAGCCUCCUCGCUGGCGCCGGCUGGGCAACAUUCCUAGGGGACCGUCCCCUCGGUAAUGGCGAAUGGGACCCA, the self-cleavage was 0.989.
In the case of GGCCGGCAUGGUCCCAGCCUCCUCGCUGGCGCCGGCUGGGCAACAUUCAGAGGGGACCGUCCCCUCGGUAAUGGCGAGUGGGACCCA, the self-cleavage is reported as 0.665.
Variant GGCCGGCAUGGUCCCAGCCUCCUCGUUGGCGCCUGCUGGGCAACAUUCCGAGGGGACCGUCCCCUCGGUAAUGGCGAAUGGGACCCA has a self-cleavage of 0.767.
Variant GGCCGGCAUGGUCCCAGCCUCCUCGCUGGCGCCGGCUGGGCAACAUUCCGUGGGGACCGUCCGCUCGGUAAUGGCGAAUGGGACCCA has a self-cleavage of 0.208.
With GGCCGGCAUGGUCCCAGCCUCCUCGCUGGCGCCGGCUGGGCAACAUUCCGAGGGGACCGUCCCCUCUGUAAUGACGAAUGGGACCCA the self-cleavage was 0.379.
With GGCCGGCAUGGUCCCAGCCUCCUCGCUGGCGCCGGCUGAGCAACAUUCCGAGGGGACCGUCCCCUCGGUAAUGGCGGAUGGGACCCA the self-cleavage was 0.141.
For GGCCGGCAUGGUCCCAGCCUCCUUGCUGGCGCCGGCUGGGCAACGUUCCGAGGGGACCGUCCCCUCGGUAAUGGCGAAUGGGACCCA, the self-cleavage was 0.373.
With GGCCGGCAUGGUCCCAGCCUCCUCGCUGGCGCCGGCUGGGCAACAUUCCGCGGGGACCGUUCCCUCGGUAAUGGCGAAUGGGACCCA the self-cleavage was 0.914.
For GGCCGGCAUGUUCCCAGCCUCCUCGCUGGCGCCGGCUGGGCAACAUUCCGAGGGGACCGUCCCCUCGGUAAUGGCUAAUGGGACCCA, the self-cleavage was 0.596.
GGCCGGCAUGGUCCCAGCCUCCUCGCUGGCGCCGGCUAGGCAACAUUCCGAGGGGACCGUCCCCUCAGUAAUGGCGAAUGGGACCCA gave a self-cleavage of 0.0665.
GGCCGGCAUGGUCCCAACCUCCUCGCUGGCGCCGGCUGGGCAACAUUCCGAGGGGACCGUCCCCUCGGUAAUUGCGAAUGGGACCCA gave a self-cleavage of 0.188.
GGCCGGCAUGAUCCCAGCCUCCUCGCUGGCGCCGGCUGGGCGACAUUCCGAGGGGACCGUCCCCUCGGUAAUGGCGAAUGGGACCCA showed a self-cleavage of 0.0692.
Variant GACGGGCAUGGUCCCAGCCUCCUCGCUGGCGCCGGCUGGGCAACAUUCCGAGGGGACCGUCCCCUCGGUAAUGGCGAAUGGGACCCA has a self-cleavage of 0.0563.
Variant GGCCGGCAUGGUCCCAGCCUCCUCGCUGGCGCCGGCUGAGCAACAUUCCGAGGGGACCGGCCCCUCGGUAAUGGCGAAUGGGACCCA has a self-cleavage of 0.404.
GGCCGGCAUGGUCCCAGCCUCCUCGCUGGCGCCGGCUGGGCAACAUCCCGAGUGGACCGUCCCCUCGGUAAUGGCGAAUGGGACCCA gave a self-cleavage of 0.966.
For GGCCGGCAUGGGCCCAGCCUCCUCUCUGGCGCCGGCUGGGCAACAUUCCGAGGGGACCGUCCCCUCGGUAAUGGCGAAUGGGACCCA, the self-cleavage was 0.0573.
GGCCGGCAUAGUCCCAGCCUCCUCGCUGGCGCCGGCUGGGCAACAUUCCGAGGGGACCGUCCCCUCGGUAAUGGCGAAUGGGCCCCA gave a self-cleavage of 0.287.
With GGCCGGCAUGGUCCCAGCCUUCUCGCUGGCGCCGGCUGGGCAACAUUCCGAGGGGACCGUCUCCUCGGUAAUGGCGAAUGGGACCCA the self-cleavage was 0.317.
Variant GGCCGGCAUUGUCCCAGCCUCCUCGCUGGCGCCGGCUGGGCAACAUUCCGAGGGGACCGUCCCCUCGGUAAUGGCCAAUGGGACCCA has a self-cleavage of 0.963.
Variant GGCCGGCAUGGUCCCAGCCCCCUCGCUGACGCCGGCUGGGCAACAUUCCGAGGGGACCGUCCCCUCGGUAAUGGCGAAUGGGACCCA has a self-cleavage of 0.0773.
Variant GGCCGGCAUGGUCCCAGCCUCCUAGCUGGCGCCGGCUGGGCAACAGUCCGAGGGGACCGUCCCCUCGGUAAUGGCGAAUGGGACCCA has a self-cleavage of 0.554.
GGCCGGCAUGGUCCCAGCCUCCUCGCUGGCGCCGGCGGGGCAACAUUCCGAGGGGACCGUCCCCUCGGUAAUGGCGAGUGGGACCCA showed a self-cleavage of 0.
GGCCGGCAUGGUCCCAGCCUCCUCGCUGGCGCCGGCUGGGCAACAUUCCGAGGGGACCGUCCCCUCGGUAAUGGAGAAUGGGACCUA showed a self-cleavage of 0.0615.
Work on GGCCGGCAUGGUCCCAGCCUCCUCGCUGGCGCCGGCUGGGCAACAUACCGAGGGGACCGUCCCCUCGAUAAUGGCGAAUGGGACCCA yielded a self-cleavage of 1.09.
In the case of GGCCGGCAUGGUCCCAGCCUCCUGGCUGGCGCCGGCUGGGCAACAUUCCGAGGGGACCGUCCCCUCGGUAAUCGCGAAUGGGACCCA, the self-cleavage is reported as 0.107.
With GGCCGGCAUGGUCCCAGCCUCCUGGCUGGCGCCGGCUGGGCAACAUUCCGAGGGGACCGUCCCCUCGGUAAUGGCGAAUGGGAGCCA the self-cleavage was 0.0811.
Variant GGCCGGCAUGGUCCCAGCCUCCUCGCUGGCGCCGGCUGGGCAACAUUCCGAGGGGACCGGCCCCUCGGGAAUGGCGAAUGGGACCCA has a self-cleavage of 0.755.
In the case of GGCCGGCAUGGUCCCAGCCUCCCCGCUGGCGCCGGCUGGGCAACAUUCCGAGGGGACCGGCCCCUCGGUAAUGGCGAAUGGGACCCA, the self-cleavage is reported as 0.798.
GGCCGGCAUGGUCGCAGCCUCCUCGCUGGCGCCGGCUGGGCUACAUUCCGAGGGGACCGUCCCCUCGGUAAUGGCGAAUGGGACCCA gave a self-cleavage of 0.252.
GGCCGCCAUGGUCCCAGCCUCCUCGCUGGCGCCGGCUGGGCAACAUUCCGAGGGGACCGUCCCCUCGGUAAUGGCUAAUGGGACCCA showed a self-cleavage of 0.604.
In the case of GGGCGGCUUGGUCCCAGCCUCCUCGCUGGCGCCGGCUGGGCAACAUUCCGAGGGGACCGUCCCCUCGGUAAUGGCGAAUGGGACCCA, the self-cleavage is reported as 0.376.
In the case of GGCCGGGUUGGUCCCAGCCUCCUCGCUGGCGCCGGCUGGGCAACAUUCCGAGGGGACCGUCCCCUCGGUAAUGGCGAAUGGGACCCA, the self-cleavage is reported as 0.104.
Work on GGCCGGCAUGGUCCCAGCCUCCUCGCUGGCCCCGGCUGGGCAACAUUCCGAGGGGACCGUGCCCUCGGUAAUGGCGAAUGGGACCCA yielded a self-cleavage of 0.259.
CGCCGGCAUGGUCCCAGCCUCCUCGCUGGCGCCGGCUGAGCAACAUUCCGAGGGGACCGUCCCCUCGGUAAUGGCGAAUGGGACCCA showed a self-cleavage of 0.203.
